Values of other authors as cited in paper PMC3907174.
pKd: −log10 of the molar value.

Target: RBP (Homo sapiens) (UniProt P02753)

For STRA6 (from UniProt Q9BX79), the pKd is given as 7.30.
